Here are results for 5 molecules from publication doi:10.1101/2022.08.26.505376 (bioRxiv, 2022).

Where two headings read alike, the source gives them in different places.

By stoichiometry N is commonly meant a count of units in the complex or per binding partner.

B2: KaiA (natural protein)
chain: MLSQIAICIWVESTAILQDCQRALSADRYQLQVCESGEMLLEYAQTHRDQIDCLILVAANPSFRAVVQQLCFEGVVVPAIVVGDRDSEDPDEPAKEQLYHSAELHLGIHQLEQLPYQVDAALAEFLRLAPVETMADHIMLMGANHDPELSSQQRDLAQRLQERLGYLGVYYKRDPDRFLRNLPAYESQKLHQAMQTSYREIVLSYFSPNSNLNQSIDNFVNMAFFADVPVTKVVEIHMELMDEFAKKLRVEGRSEDILLDYRLTLIDVIAHLCEMYRRSIPRET
B3: KaiC (natural protein)
chain: MTSAEMTSPNNNSEHQAIAKMRTMIEGFDDISHGGLPIGRSTLVSGTSGTGKTLFSIQFLYNGIIEFDEPGVFVTFEETPQDIIKNARSFGWDLAKLVDEGKLFILDASPDPEGQEVVGGFDLSALIERINYAIQKYRARRVSIDSVTSVFQQYDASSVVRRELFRLVARLKQIGATTVMTTERIEEYGPIARYGVEEFVSDNVVILRNVLEGERRRRTLEILKLRGTSHMKGEYPFTITDHGINIFPLGAMRLTQRSSNVRVSSGVVRLDEMCGGGFFKDSIILATGATGTGKTLLVSRFVENACANKERAILFAYEESRAQLLRNAYSWGMDFEEMERQNLLKIVCAYPESAGLEDHLQIIKSEINDFKPARIAIDSLSALARGVSNNAFRQFVIGVTGYAKQEEITGLFTNTSDQFMGAHSITDSHISTITDTIILLQYVEIRGEMSRAINVFKMRGSWHDKAIREFMISDKGPDIKDSFRNFERIISGSPTRITVDEKSELSRIVRGVQEKGPES
B5: KaiCDT (phosphorylation mimic KaiC) (natural protein)
chain: MTSAEMTSPNNNSEHQAIAKMRTMIEGFDDISHGGLPIGRSTLVSGTSGTGKTLFSIQFLYNGIIEFDEPGVFVTFEETPQDIIKNARSFGWDLAKLVDEGKLFILDASPDPEGQEVVGGFDLSALIERINYAIQKYRARRVSIDSVTSVFQQYDASSVVRRELFRLVARLKQIGATTVMTTERIEEYGPIARYGVEEFVSDNVVILRNVLEGERRRRTLEILKLRGTSHMKGEYPFTITDHGINIFPLGAMRLTQRSSNVRVSSGVVRLDEMCGGGFFKDSIILATGATGTGKTLLVSRFVENACANKERAILFAYEESRAQLLRNAYSWGMDFEEMERQNLLKIVCAYPESAGLEDHLQIIKSEINDFKPARIAIDSLSALARGVSNNAFRQFVIGVTGYAKQEEITGLFTNTSDQFMGAHSITDSHIDTITDTIILLQYVEIRGEMSRAINVFKMRGSWHDKAIREFMISDKGPDIKDSFRNFERIISGSPTRITVDEKSELSRIVRGVQEKGPES

Assay in all cases: AUC
Data set [1] deals with B3.
Data set [2] addresses B5.
Data set [3] deals with the molecule itself.
Data set [4] deals with the molecule itself. This is another data set of the same source.
The target in data set [5] is B2.

B1: KaiB (natural protein)
chain: MSPRKTYILKLYVAGNTPNSVRALKTLKNILEVEFQGVYALKVIDVLKNPQLAEEDKILATPTLAKVLPLPVRRIIGDLSDREKVLIGLDLLYGELQDSDDF
For the molecule B1, the binding result in data set [1] and in data set [2] was “binds” throughout. Further, the “stoichiometry N” value in data set [3] was 4.

For B2, in data set [3], the “stoichiometry N” value came out at 2.

For the molecule B3, the “stoichiometry N” value in data set [4] was 6.

B4: KaiCAA (dephosphorylation mimic KaiC) (natural protein)
chain: MTSAEMTSPNNNSEHQAIAKMRTMIEGFDDISHGGLPIGRSTLVSGTSGTGKTLFSIQFLYNGIIEFDEPGVFVTFEETPQDIIKNARSFGWDLAKLVDEGKLFILDASPDPEGQEVVGGFDLSALIERINYAIQKYRARRVSIDSVTSVFQQYDASSVVRRELFRLVARLKQIGATTVMTTERIEEYGPIARYGVEEFVSDNVVILRNVLEGERRRRTLEILKLRGTSHMKGEYPFTITDHGINIFPLGAMRLTQRSSNVRVSSGVVRLDEMCGGGFFKDSIILATGATGTGKTLLVSRFVENACANKERAILFAYEESRAQLLRNAYSWGMDFEEMERQNLLKIVCAYPESAGLEDHLQIIKSEINDFKPARIAIDSLSALARGVSNNAFRQFVIGVTGYAKQEEITGLFTNTSDQFMGAHSITDSHIAAITDTIILLQYVEIRGEMSRAINVFKMRGSWHDKAIREFMISDKGPDIKDSFRNFERIISGSPTRITVDEKSELSRIVRGVQEKGPES
B4: the binding result in data set [5] is “binds”. In addition, in data set [4], the “stoichiometry N” value came to 6.

On to B5, for which, in data set [3], the binding result is “binds”.
